Data on three molecules can be found in paper PMC5727398, “Nucleotide– and Mal3-dependent changes in fission yeast microtubules suggest a structural plasticity view of dynamics” (Nature Communications, 2017).

The labels stand for the following.
B1: monomeric Mal3 (1-143, Mal3-143) (domain or fragment, S. pombe, UniProt Q10113 1-143, looked up)
chain: MSESRQELLAWINQVTSLGLTRIEDCGKGYAMIQIFDSIYQDIPLKKVNFECNNEYQYINNWKVLQQVFLKKGIDKVVDPERLSRCKMQDNLEFVQWAKRFWDQYYPGGDYDALARRGNRGPANTRVMNSSAGATGPSRRRQV
notes: also called Mal3 CH domain
B2: S. pombe α-tubulin1 (in the microtubule lattice) (natural protein, UniProt P04688 1-455, looked up)
chain: MREVISVHVGQAGVQIGNACWELYCLEHGIGPDGFPTENSEVHKNNSYLNDGFGTFFSETGQGKFVPRSIYVDLEPNVIDQVRTGPYKDLFHPEQMVTGKEDASNNYARGHYTVGKEMIDSVLERIRRMADNCSGLQGFLVFHSFGGGTGSGLGALLLERLNMEYGKKSNLQFSVYPAPQVSTSVVEPYNSVLTTHATLDNSDCTFMVDNEACYDICRRNLDIERPTYENLNRLIAQVVSSITASLRFAGSLNVDLNEFQTNLVPYPRIHFPLVTYSPIVSAAKAFHESNSVQEITNQCFEPYNQMVKCDPRTGRYMATCLLYRGDVIPRDVQAAVTSIKSRRTIQFVDWCPTGFKIGICYEPPQHVPGSGIAKVNRAVCMLSNTTSIAEAWSRLDHKFDLMYSKRAFVHWYVGEGMEEGEFSEAREDLAALERDYEEVGQDSMDNEMYEADEEY
notes: S. pombe alpha-tubulin1, native, untagged; the sample was a wild-type mixture of alpha-tubulin1 and alpha-tubulin2, the model and the residue numbers are those of alpha-tubulin1; Subunit of m2, written alone for the contacts seen in the structure; also called Sp_α-tubulin1; Sp_α-tub; source: purified from S. pombe as tag-free endogenous tubulin (dual isoform), polymerized in vitro
B3: full-length Mal3-GFP (natural protein, S. pombe, UniProt Q10113 1-308, looked up)
chain: MSESRQELLAWINQVTSLGLTRIEDCGKGYAMIQIFDSIYQDIPLKKVNFECNNEYQYINNWKVLQQVFLKKGIDKVVDPERLSRCKMQDNLEFVQWAKRFWDQYYPGGDYDALARRGNRGPANTRVMNSSAGATGPSRRRQVSSGSSTPSMTKSSANNNNVSSTANTAAVLRAKQAQQQITSLETQLYEVNETMFGLERERDFYFNKLREIEILVQTHLTTSPMSMENMLERIQAILYSTEDGFELPPDQPADLTTALTDHDTNNVAEEAQMTDLKDSETQRVPSAPDFVHARLQSLEVDDDENITF
notes: Mal3, the S. pombe EB protein, full length; His tag removed by TEV protease cleavage; also called dimeric Mal3; not shown: e-GFP, C-terminal, kept

The target in series [1] is B2. The experiment in a line: cryo-EM structure; 20 or 30 uM dual-isoform Sp_tub polymerized with 5 mM GTP and 25 uM Mal3-143 at 32 °C in PEM mixed 1:1 with MES buffer; 13 uM MTs incubated with 60 uM Mal3 before freezing; 13-PF (13_3) MTs, single-particle averaging, 4.6 Å, no kinesin motor domain. Conditions: both partners purified.
Series [2] concerns the molecule itself. The series is described as above.
Series [3] addresses T1, dynamic microtubules polymerized from unlabeled single-isoform S. pombe tubulin (S. pombe, UniProt P04688 1-455; P05219 1-448).
T1 construct: S. pombe alpha-tubulin1, untagged; S. pombe beta-tubulin, untagged; Polymer of alpha-beta heterodimers, grown with 1 mM GTP from Alexa-488-labeled GMPCPP-stabilized pig brain MT seeds
The experiment in a line: TIRF microscopy; dynamic unlabeled MTs grown from antibody-immobilized GMPCPP pig brain MT seeds; GFP-labelled EB protein in solution; PEM100 pH 6.9 plus 1 mM GTP, with additional KCl (55, 75, 85 mM) in some experiments; 4.5 or 14 uM Sp_tub, 25 uM pig brain tubulin. Conditions: both partners purified.

T1 sequence (P05219 whole entry, canonical isoform, one chain of several): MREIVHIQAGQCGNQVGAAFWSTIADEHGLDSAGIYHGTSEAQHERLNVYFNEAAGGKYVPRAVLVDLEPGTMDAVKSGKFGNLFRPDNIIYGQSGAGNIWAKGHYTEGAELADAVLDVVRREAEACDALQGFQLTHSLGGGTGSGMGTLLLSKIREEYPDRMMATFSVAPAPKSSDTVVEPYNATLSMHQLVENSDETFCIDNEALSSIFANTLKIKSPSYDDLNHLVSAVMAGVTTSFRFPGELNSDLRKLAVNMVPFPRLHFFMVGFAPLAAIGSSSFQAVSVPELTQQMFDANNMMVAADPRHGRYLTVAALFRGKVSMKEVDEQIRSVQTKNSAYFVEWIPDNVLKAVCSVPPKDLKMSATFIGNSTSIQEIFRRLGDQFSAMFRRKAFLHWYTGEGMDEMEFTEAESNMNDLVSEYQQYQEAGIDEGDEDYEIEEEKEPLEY

As for B1, in series [1], the binding result is “binds”.
B2: the binding result in series [2] is “binds”.
As for B3, the binding result in series [3] is on record as “binds”.
